Source: paper PMC10439114

Biological target: T1, CD155 with a C-terminal V5 epitope tag, on Raji cells (UniProt P15151)
T1 sequence: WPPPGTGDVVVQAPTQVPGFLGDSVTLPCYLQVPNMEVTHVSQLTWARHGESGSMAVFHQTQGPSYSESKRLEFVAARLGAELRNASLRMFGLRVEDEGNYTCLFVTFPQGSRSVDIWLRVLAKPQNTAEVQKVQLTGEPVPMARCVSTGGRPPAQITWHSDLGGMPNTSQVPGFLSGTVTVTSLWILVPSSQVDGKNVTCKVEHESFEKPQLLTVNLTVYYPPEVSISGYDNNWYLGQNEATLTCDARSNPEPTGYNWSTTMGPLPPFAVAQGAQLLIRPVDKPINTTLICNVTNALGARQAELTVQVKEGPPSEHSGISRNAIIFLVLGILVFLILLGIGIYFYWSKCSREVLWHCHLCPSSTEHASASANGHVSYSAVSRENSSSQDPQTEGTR

B1: TIGIT-SNAP (wild-type TIGIT with a C-terminal SNAP-tag, on Jurkat cells) (receptor)
chain: MMTGTIETTGNISAEKGGSIILQCHLSSTTAQVTQVNWEQQDQLLAICNADLGWHISPSFKDRVAPGPGLGLTLQSLTVNDTGEYFCIYHTYPDGTYTGRIFLEVLESSVAEHGARFQIPLLGAMAATLVVICTAVIVVVALTRKKKALRIHSVEGDLRRKSAGQEEWSPSAPSPPGSCVQAEAAPAGLCGEQRGEDCAELHDYFNVLSYRSLGNCSFFTETG
IL-2 release of Jurkat TIGIT-SNAP cells after 6 h with SEE-pulsed Raji-CD155 relative to Raji-CD111 co-cultures (ELISA): 37%
log2-fold decrease of IL-2 release of Jurkat TIGIT-SNAP cells with SEE-pulsed Raji-CD155 against Raji-CD111 (ELISA): 1.45 log2 fold
